From patent US20260070975A1 (SANTA ANA BIO, published 2026) come the findings set out here.

Positions count from the first letter of the chain named.

To fix the notation:
T1: siglec 2 expressed on HEK293 cells (UniProt P20273 20-847, limits assumed)
T1 construct: whole, on cells; also called Siglec-6 family member
T1 sequence (looked up): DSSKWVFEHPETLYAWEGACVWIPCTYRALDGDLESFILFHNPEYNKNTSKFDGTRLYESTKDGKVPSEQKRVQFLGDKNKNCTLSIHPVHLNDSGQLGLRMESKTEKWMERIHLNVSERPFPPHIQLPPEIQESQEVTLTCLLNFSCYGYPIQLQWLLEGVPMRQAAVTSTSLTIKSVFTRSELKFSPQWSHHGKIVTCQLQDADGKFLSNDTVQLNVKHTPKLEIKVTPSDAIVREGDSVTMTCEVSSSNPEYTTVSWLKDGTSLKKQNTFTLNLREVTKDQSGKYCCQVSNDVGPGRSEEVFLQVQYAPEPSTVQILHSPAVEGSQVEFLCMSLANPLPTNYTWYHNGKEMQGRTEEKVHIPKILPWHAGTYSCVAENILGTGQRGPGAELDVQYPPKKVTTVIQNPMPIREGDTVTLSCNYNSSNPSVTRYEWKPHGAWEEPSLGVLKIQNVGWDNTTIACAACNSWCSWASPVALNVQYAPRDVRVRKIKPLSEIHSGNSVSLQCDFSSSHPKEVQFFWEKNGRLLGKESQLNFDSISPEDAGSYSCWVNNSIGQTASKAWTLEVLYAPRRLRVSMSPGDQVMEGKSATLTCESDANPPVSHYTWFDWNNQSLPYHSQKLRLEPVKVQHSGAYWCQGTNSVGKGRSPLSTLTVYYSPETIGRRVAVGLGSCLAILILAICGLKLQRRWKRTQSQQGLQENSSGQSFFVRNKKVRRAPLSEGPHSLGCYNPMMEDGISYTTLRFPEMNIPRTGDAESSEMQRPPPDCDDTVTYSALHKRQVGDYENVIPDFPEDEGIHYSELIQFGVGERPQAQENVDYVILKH

T2: siglec 4 expressed on HEK293 cells (UniProt P20916 20-626, limits assumed)
T2 construct: whole, on cells; also called Siglec-6 family member
T2 sequence (looked up): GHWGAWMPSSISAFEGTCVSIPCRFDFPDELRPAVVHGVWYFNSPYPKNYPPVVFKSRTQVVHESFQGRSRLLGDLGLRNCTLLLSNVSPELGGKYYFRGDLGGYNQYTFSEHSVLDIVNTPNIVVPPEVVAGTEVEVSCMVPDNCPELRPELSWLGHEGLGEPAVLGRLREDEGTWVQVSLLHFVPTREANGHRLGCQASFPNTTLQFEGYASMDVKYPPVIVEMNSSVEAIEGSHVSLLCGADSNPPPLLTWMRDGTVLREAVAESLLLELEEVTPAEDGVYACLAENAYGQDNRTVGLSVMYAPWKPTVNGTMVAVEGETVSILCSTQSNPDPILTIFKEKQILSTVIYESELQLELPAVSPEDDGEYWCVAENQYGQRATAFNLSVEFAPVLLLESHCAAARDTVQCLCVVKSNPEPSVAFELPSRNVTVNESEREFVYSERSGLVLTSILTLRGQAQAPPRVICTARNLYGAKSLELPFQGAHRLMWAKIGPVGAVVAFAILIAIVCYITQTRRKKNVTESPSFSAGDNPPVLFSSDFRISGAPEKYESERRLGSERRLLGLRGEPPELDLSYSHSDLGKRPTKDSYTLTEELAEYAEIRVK

T3: siglec 10 expressed on HEK293 cells (UniProt Q96LC7 17-697, limits assumed)
T3 construct: whole, on cells; also called Siglec-6 family member
T3 sequence (looked up): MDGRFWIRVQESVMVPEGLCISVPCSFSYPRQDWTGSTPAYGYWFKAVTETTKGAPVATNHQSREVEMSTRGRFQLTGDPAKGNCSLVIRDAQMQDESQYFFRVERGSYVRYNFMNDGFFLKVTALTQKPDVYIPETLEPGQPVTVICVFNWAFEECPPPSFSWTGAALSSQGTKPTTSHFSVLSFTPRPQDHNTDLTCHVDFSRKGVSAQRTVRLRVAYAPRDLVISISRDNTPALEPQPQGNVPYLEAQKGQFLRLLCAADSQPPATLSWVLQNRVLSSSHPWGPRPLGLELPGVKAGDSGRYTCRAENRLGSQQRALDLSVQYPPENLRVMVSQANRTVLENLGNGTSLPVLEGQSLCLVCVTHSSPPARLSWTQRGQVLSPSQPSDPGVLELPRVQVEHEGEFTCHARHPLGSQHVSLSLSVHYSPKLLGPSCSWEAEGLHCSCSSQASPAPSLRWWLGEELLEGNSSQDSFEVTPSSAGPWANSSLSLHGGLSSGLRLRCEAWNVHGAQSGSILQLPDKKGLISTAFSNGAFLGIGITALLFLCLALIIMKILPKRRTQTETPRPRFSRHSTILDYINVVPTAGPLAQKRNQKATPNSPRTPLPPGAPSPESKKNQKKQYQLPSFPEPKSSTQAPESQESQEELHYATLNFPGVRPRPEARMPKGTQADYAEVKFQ

B1: hRND-2 (antibody, human IgG1, kappa, V domains shown)
VH: QVQLVQSGAEVKKPGASVKVSCKASGYAFTSYWMHWVRQAPGQRLEWMGEIYPTNGGTTYAQKFQGRVTMTVDKSTSTAYMELSRLRSDDTAVYYCTIEDFYAMDYWGQGTTVTVSS
VL: DIVMTQTPLSLSVTPGQPASISCKSSQSLLDSDGKTSLNWLLQKPGQSPQRLIYLVSKLDSGVPDRFSGSGSGTDFTLKISRVEAEDVGVYYCWQGTHFPYTFGQGTKLEIKR
notes: also called humanized RND-2; hRND-H2 / hRND-L3; copies: 2 + 2
B2: hRND-5 (antibody, human IgG1, kappa, V domains shown)
VH: B1 VH with V20L, M48I, A61N, Q62E, Q65K, G66R, V68A, M70L
VL: B1 VL
notes: also called humanized RND-5; hRND-H3b / hRND-L3; copies: 2 + 2
B3: hRND-3 (antibody, human IgG1, kappa, V domains shown)
VH: B1 VH with V20L, M48I, V68A, M70L
VL: B1 VL
notes: also called humanized RND-3; hRND-H3 / hRND-L3; copies: 2 + 2
B4: hRND-4 (antibody, human IgG1, kappa, V domains shown)
VH: B1 VH with A61N, Q62E, Q65K, G66R
VL: B1 VL
notes: also called humanized RND-4; hRND-H2b / hRND-L3; copies: 2 + 2

T6 sequence (Q9NYZ4 17-499 limits assumed): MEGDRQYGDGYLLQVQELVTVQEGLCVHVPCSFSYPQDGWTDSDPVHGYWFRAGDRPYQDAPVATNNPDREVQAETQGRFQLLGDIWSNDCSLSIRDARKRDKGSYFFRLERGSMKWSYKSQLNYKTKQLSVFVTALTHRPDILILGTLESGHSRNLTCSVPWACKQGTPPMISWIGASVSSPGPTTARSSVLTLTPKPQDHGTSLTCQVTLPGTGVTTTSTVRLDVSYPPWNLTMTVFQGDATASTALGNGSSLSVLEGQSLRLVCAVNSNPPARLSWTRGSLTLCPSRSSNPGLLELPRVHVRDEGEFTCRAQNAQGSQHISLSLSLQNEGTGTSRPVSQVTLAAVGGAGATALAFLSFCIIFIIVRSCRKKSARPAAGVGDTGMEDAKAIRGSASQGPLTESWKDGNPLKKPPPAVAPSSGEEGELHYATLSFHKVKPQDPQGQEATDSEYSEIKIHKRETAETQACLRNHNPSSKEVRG
T4 sequence (Q9BZZ2 20-1709 limits assumed): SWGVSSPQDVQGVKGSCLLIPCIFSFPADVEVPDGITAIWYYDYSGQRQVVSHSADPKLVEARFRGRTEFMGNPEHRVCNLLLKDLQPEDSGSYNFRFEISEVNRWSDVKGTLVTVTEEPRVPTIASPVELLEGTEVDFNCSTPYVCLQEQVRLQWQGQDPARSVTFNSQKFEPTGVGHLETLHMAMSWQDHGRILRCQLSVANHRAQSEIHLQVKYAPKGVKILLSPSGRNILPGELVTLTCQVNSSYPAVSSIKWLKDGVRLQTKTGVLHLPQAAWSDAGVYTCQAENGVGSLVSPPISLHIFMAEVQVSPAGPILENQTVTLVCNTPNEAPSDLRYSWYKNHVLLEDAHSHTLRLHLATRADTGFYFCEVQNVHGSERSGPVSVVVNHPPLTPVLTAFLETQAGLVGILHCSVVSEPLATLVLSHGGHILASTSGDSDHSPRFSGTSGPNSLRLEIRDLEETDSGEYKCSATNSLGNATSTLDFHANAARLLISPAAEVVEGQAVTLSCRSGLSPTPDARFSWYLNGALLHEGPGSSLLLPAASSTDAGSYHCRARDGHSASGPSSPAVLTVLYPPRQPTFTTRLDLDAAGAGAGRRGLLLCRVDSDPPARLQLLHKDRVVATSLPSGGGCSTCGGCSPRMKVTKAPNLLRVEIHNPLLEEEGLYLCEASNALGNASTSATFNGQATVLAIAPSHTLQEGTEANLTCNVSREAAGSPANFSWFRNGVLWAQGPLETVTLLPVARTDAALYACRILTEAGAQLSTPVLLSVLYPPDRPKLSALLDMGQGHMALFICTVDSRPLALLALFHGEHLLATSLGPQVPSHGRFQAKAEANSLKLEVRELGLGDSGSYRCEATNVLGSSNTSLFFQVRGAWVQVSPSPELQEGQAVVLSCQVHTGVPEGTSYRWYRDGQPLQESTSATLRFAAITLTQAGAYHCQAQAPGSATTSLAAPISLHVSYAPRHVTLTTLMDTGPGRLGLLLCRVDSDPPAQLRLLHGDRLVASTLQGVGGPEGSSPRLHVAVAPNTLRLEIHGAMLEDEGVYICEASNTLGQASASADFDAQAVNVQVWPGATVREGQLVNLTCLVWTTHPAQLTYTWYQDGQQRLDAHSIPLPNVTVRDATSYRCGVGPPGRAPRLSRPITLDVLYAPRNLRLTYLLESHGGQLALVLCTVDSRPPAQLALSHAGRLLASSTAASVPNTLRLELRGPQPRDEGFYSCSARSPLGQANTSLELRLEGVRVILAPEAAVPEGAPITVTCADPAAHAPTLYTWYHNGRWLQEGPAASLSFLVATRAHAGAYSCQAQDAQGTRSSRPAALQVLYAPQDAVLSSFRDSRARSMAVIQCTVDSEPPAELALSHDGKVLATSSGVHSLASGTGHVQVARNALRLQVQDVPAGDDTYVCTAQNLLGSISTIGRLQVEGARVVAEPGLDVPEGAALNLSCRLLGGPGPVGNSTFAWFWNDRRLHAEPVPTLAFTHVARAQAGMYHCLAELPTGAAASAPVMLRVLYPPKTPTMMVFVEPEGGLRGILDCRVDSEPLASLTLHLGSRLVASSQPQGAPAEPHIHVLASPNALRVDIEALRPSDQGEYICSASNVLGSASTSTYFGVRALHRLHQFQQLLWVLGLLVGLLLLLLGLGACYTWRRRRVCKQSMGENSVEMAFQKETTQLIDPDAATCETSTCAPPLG

The first assay concerns the target T4, siglec 1 expressed on HEK293 cells (UniProt Q9BZZ2 20-1709, limits assumed).
T4 construct: whole, on cells; also called Siglec-6 family member
Put plainly: flow cytometry on HEK293 cells expressing the target. As to the method: (§1) Cultured HEK293 cells expressing human siglec-6, cynomolgus siglec-6, or siglec 6 family members were resuspended in FACS Blocking Buffer (PBS+10% normal human serum) for 30 minutes. Following washing, cells were incubated with siglec-6 antibodies in FACS Buffer (PBS+0.5% bovine serum albumin+0.09% sodium azide) and incubated at 4° C. for 30 minutes, washed and incubated with PE-labeled anti-human secondary antibody. Cells were incubated at 4° C. for 30 minutes in the dark. Following washing, cytofluorimetric analysis was conducted using a BD FACS Symphony A3 (BD Biosciences). Cells were sorted by scatter properties and separated for single cell analysis using side scatter width vs side scatter area. Antibody binding to cells was quantitated by measuring fluorescent emissions of excitation wavelength of 561 nm using a 586/15 nm filter. Data analysis was performed using FlowJo Software.
On the technique in general: Flow cytometry measures light scatter and fluorescence of single cells or particles in a stream.
B1: the binding result is recorded as “no binding”.
B2: the binding result is reported as “no binding”.
Same read-out and setting: the entry for B3 is “no binding”; for B4 it is “no binding”.

The target of a further assay is T1, siglec 2 expressed on HEK293 cells. Described as above. As to the method: as §1
Regarding B1, the binding result is “no binding”.
The same measure, in the same setting: with B2 the entry was “no binding”.
On the same count and under the same terms, the entry for B3 is “no binding”; for B4 it is “no binding”.

In another assay the target is T5, siglec 3 expressed on HEK293 cells (UniProt P20138 18-364, limits assumed).
T5 construct: whole, on cells; also called Siglec-6 family member
T5 sequence (P20138 18-364 limits assumed): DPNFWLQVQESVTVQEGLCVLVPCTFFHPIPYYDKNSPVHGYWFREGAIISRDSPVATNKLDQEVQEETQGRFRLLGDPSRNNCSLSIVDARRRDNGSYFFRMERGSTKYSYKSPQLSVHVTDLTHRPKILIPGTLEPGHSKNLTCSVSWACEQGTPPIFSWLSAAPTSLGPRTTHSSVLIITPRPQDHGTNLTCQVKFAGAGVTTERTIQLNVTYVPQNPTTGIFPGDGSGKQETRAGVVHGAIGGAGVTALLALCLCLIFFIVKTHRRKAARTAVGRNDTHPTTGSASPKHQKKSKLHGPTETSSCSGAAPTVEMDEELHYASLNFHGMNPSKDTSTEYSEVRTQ
The assay is described as above. The method, then: as §1
B1: the binding result was “no binding”.
Consider B2, for which the binding result is “no binding”.
The same measure, in the same setting: the entry for B3 is “no binding”; for B4 it is “no binding”.

Another assay concerns the target T2, siglec 4 expressed on HEK293 cells. Described as above. As to the method: as §1
Consider B1, for which the binding result is “no binding”.
Same read-out and setting: the entry for B2 is “no binding”; for B3 it is “no binding”.
The same measure, in the same setting: with B4 the entry was “no binding”.

The next assay concerns the target T6, siglec 8 expressed on HEK293 cells (UniProt Q9NYZ4 17-499, limits assumed).
T6 construct: whole, on cells; also called Siglec-6 family member
Described as above. The method, then:
as §1
B1: the binding result was “no binding”.
On the same count and under the same terms, the entry for B2 is “no binding”.
Still for that read-out and setting: the entry for B3 is “no binding”; for B4 it is “no binding”.

In another assay the target is T3, siglec 10 expressed on HEK293 cells. Described as above. As to the method: as §1
With B1, the binding result was “no binding”.
Same read-out and setting: with B2 the entry was “no binding”; with B3, “no binding”; with B4, “no binding”.

The next assay deals with T7, siglec 12 expressed on HEK293 cells (UniProt Q96PQ1 19-595, limits assumed).
T7 construct: whole, on cells; also called Siglec-6 family member
T7 sequence (Q96PQ1 19-595 limits assumed): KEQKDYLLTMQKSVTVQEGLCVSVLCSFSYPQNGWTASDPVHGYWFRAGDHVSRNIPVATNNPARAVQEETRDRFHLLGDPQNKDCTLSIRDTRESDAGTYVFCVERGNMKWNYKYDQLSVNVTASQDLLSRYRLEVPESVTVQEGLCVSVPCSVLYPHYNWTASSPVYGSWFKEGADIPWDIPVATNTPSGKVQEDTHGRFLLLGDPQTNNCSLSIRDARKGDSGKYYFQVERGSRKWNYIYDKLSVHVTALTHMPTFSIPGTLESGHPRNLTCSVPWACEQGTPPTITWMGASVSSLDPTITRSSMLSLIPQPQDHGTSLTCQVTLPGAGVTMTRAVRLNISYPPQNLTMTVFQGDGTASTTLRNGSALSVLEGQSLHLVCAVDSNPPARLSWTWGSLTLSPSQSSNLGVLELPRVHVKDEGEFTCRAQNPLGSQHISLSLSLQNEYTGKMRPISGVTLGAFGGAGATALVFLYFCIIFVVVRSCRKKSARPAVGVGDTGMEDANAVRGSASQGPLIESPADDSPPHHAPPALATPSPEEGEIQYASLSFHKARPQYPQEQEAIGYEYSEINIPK
The description is as above. As to the method:
as §1
As to B1, the binding result was “no binding”.
The same measure, in the same setting: with B2 the entry was “no binding”; with B3, “no binding”.
Same read-out and setting: the entry for B4 is “no binding”.
